The values below are quoted from earlier work in paper PMC10616597.

This data set concerns the target TLR4 (Homo sapiens) (UniProt O00206).
UniProt O00206, sequence (O00206 24-839): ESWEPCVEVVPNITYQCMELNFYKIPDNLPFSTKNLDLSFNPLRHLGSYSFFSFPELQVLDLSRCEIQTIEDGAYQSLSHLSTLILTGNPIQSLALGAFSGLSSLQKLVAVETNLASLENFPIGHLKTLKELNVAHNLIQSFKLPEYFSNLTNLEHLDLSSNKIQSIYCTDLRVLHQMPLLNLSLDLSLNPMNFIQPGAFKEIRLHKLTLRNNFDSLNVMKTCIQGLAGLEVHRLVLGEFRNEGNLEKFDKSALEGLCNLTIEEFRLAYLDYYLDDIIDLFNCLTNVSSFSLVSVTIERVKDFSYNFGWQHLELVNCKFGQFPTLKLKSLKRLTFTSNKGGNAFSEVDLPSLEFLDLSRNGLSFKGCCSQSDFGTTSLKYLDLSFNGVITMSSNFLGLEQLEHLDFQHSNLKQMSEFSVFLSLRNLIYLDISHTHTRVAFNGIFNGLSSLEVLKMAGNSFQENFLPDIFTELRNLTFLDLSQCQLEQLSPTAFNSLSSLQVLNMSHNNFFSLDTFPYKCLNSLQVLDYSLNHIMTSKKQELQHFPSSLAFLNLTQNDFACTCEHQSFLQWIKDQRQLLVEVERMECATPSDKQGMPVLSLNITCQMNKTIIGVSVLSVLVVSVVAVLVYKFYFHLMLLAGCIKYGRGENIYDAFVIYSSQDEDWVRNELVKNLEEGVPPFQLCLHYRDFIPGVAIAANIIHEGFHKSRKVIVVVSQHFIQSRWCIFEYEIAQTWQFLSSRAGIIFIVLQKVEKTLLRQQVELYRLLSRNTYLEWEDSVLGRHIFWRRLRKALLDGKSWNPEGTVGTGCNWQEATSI

Consider eNAMPT (from UniProt P43490), for which the equilibrium dissociation constant (Kd) was 18 nM.

For orientation: Kd means the constant that tells how readily two partners part at equilibrium.
